Molecular target: NLRP3 inflammasome (Homo sapiens, UniProt Q96P20)
Experiment: In vitro assay of NLRP3 assembly (hybridoma clones)
Conditions: compared among the hybridoma clones

NLRP3 inflammasome, sequence (Q96P20 whole entry): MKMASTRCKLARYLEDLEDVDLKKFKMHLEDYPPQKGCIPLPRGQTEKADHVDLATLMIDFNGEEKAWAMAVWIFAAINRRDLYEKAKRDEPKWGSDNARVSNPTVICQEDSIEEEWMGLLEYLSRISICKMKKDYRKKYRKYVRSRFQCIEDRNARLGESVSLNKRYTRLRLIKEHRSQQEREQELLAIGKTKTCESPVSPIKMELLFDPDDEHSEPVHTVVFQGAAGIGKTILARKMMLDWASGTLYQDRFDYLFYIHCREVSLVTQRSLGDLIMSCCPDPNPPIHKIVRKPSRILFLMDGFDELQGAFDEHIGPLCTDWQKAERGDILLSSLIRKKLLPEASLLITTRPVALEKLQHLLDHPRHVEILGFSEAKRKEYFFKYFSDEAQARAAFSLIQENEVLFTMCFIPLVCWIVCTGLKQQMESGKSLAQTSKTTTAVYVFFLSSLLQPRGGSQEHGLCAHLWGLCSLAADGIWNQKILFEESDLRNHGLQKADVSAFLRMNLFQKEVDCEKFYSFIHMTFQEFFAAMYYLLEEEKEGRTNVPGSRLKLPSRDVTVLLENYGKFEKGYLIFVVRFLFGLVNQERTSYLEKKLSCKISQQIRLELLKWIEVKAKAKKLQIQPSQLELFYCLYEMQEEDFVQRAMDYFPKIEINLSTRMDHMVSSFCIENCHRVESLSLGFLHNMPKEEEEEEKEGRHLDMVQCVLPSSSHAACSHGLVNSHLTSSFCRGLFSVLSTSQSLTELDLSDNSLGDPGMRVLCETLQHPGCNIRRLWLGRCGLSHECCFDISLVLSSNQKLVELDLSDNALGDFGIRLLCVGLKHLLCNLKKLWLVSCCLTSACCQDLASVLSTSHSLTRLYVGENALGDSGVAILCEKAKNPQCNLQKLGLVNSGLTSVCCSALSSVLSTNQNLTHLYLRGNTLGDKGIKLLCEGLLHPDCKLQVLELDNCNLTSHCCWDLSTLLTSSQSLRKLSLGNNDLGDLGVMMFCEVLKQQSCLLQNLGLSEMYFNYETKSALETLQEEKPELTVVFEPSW

B1: F226 7A7-1E1-2D5: anti-NLRP3 monoclonal antibody from hybridoma clone, sequenced and used in the bispecific; VH SEQ ID NO: 36, VL SEQ ID NO: 43 (antibody)
VH: MDFGLSWVFLVLVLKGVQCEVQLVESGGGLVKPGGSLKLSCAASGFTFSDYYMYWVRQTPEKRLEWVATISDGGTYTYYPDSVKGRFTISRDNAKNNLYLQMNSLKSEDTAMYYCARGWVSTMVKLLSSFPYWGQGTLVTVSAAKTTPPSVYPLA
VL: MAWISLLFSLLALSSGAISQAVVTQESALTTSPGETVTLTCRSSTGAVTTSNYANWVQEKPDHLFTGLIGGTNNRAPGVPARFSGSLIGDKAALTITGAQTEDEAIYFCALWYSNYWVFGGGTKLTVLGQPKSSPSVTLFPPSTEKLSL
- preventing NLRP3 assembly: most active

From patent US12264201B2, “Bispecific antibody targeting IL-1R1 and NLPR3” (University of Ulster, priority 2018, dated 2025)
